Here are results for 6 substances from article PMC10476280.

In data set [1] the test system is Cse4(CENP-A)-GFP (Saccharomyces cerevisiae (W303, SBY3 derivative)). In words: single-molecule TIRFM endpoint colocalization. The following applies: yeast whole cell extract, single-molecule TIRFM on surface-tethered DNA, buffer, salt, pH and temperature not given in the material.
For data set [2], the system named is histone H3 (Saccharomyces cerevisiae (W303, SBY3 derivative)). In words: single-molecule TIRFM endpoint colocalization. Conditions: yeast whole cell extract, single-molecule TIRFM on surface-tethered DNA, buffer, salt, pH and temperature not given in the material.
Data set [3] deals with Scm3(HJURP) (Saccharomyces cerevisiae (W303, SBY3 derivative)). In words: single-molecule TIRFM residence assay. The following applies: yeast whole cell extract, single-molecule TIRFM on surface-tethered DNA; buffer, salt, pH and temperature not given in the material.
For data set [4], the system named is Cse4(CENP-A)-GFP (Saccharomyces cerevisiae (W303, SBY3 derivative)). In words: single-molecule TIRFM endpoint colocalization. The following applies: yeast whole cell extract, single-molecule TIRFM on surface-tethered DNA; buffer, salt, pH and temperature not given in the material.
The subject of data set [5] is Ndc10-mCherry (CBF3 component) (Saccharomyces cerevisiae (W303, SBY3 derivative)). In words: single-molecule TIRFM endpoint colocalization. The following applies: WT extract; yeast whole cell extract, single-molecule TIRFM on surface-tethered DNA; buffer, salt, pH and temperature not given in the material.

Values joined by “and” are separate entries in the source; they are usually repeats but may differ in a detail not shown here. Equal entries are not always repeated.

Regarding alpha-sat CEN DNA, the binding signal (% DNA colocalized) in data set [1] turned out to be 1.7.

For CEN7 DNA, the binding signal (% DNA colocalized) in data set [1] (WT extract) was 18.

For the substance CEN9 DNA, the binding signal (% DNA colocalized) in data set [1] (WT extract) was 22.

Consider Widom-601 DNA, for which the binding signal (% DNA colocalized) in data set [2] was 7.1.

Turning to CEN3 DNA (WT, ~750 bp), the binding signal (residences per DNA (45 min)) in data set [3] was determined as 0.57. The binding signal (% DNA colocalized) in data set [4] is 5 and 8; in data set [1] (WT extract), 50; in data set [1], 19.3; in data set [5], 70; in data set [2] (low level), 5.5.

For Widom-601-CDEIII hybrid, the binding signal (% DNA colocalized) worked out at 3.1 in data set [1] and 4.1 in data set [2] (low level).
